Laboratory results published in US20100041875A1.

Legend:
[1] = target: wild-type JR-FL SOS gp140 (trimer) (HIV-1 isolate JR-FL (subtype B)) (UniProt P20871); assay: SPR (BIAcore X): agent captured via Fc on protein G chip, 5 nM purified gp140 trimer injected
[2] = target: JR-FL gp41 NT 1-5 SOS gp140 mutant (trimer) (HIV-1 isolate JR-FL (subtype B)) (UniProt P20871); assay: as above
[3] = target: full-length WT JR-FL (gp160) Env (JR-FL WT) (HIV-1 isolate JR-FL (subtype B)) (UniProt P20871); assay: cell-based or functional assay
[4] = target: JR-FL gp41 NT 1-5 mutant Env (full-length gp160) (HIV-1 isolate JR-FL (subtype B)) (UniProt P20871); assay: cell-based or functional assay
[5] = target: wild-type JR-FL SOS gp140 (trimer) (HIV-1 isolate JR-FL (subtype B)) (UniProt P20871); assay: SPR (BIAcore X): agent captured via Fc on protein G chip, 5 nM purified gp140 trimer injected, no CD4
[6] = target: JR-FL gp41 NT 1-5 SOS gp140 mutant (trimer) (HIV-1 isolate JR-FL (subtype B)) (UniProt P20871); assay: as above
[7] = target: wild-type JR-FL SOS gp140 (trimer) (HIV-1 isolate JR-FL (subtype B)) (UniProt P20871); assay: SPR, with against without D1D2-CD4
[8] = target: JR-FL gp41 NT 1-5 SOS gp140 mutant (trimer) (HIV-1 isolate JR-FL (subtype B)) (UniProt P20871); assay: SPR, with against without D1D2-CD4
[9] = target: wild-type JR-FL SOS gp140 (trimer) (HIV-1 isolate JR-FL (subtype B)) (UniProt P20871); assay: SPR (BIAcore X): 17b captured via Fc on protein G chip, 5 nM gp140 trimer pre-incubated 1 h with 6-molar excess D1D2-CD4
[10] = target: JR-FL gp41 NT 1-5 SOS gp140 mutant (trimer) (HIV-1 isolate JR-FL (subtype B)) (UniProt P20871); assay: as above

Substance	Mean RU at end of injection (t = 180 s) [1] [RU]	Mean RU at end of injection (t = 180 s) [2] [RU]	neutralization of Env-pseudotyped virus infectivity (U87.CD4.CCR5 cells), mean IC50 [3]	neutralization of Env-pseudotyped virus infectivity (U87.CD4.CCR5 cells), mean IC50 [4]	other results
CD4-IgG2 (PRO 542) (from UniProt P01730 26-204) (Fc fusion)	212	224	0.82 µg/mL	0.74 µg/mL	
MAb 2F5 (antibody)	191	216	6.2 µg/mL	5.9 µg/mL	
MAb 4E10 (antibody)	83	94	13.4 µg/mL	14.1 µg/mL	
MAb 15e (antibody)			> 50 µg/mL	> 50 µg/mL	
MAb 17b (antibody)			> 50 µg/mL	> 50 µg/mL	Mean RU at end of injection (t = 180 s) [5]: 39 RU; Mean RU at end of injection (t = 180 s) [6]: 14 RU; fold induction of 17b binding by D1D2-CD4 [7]: 5 fold; fold induction of 17b binding by D1D2-CD4 [8]: 25 fold; neutralization of Env-pseudotyped virus infectivity in the presence of sCD4 (17b + sCD4), mean IC50 [3]: 25.9 µg/mL; neutralization in the presence of sCD4, fold against the WT virus [4]: 2 fold; neutralization of Env-pseudotyped virus infectivity in the presence of sCD4 (17b + sCD4), mean IC50 [4]: 15.2 µg/mL; Mean RU at end of injection (t = 180 s) [9]: 237 RU; Mean RU at end of injection (t = 180 s) [10]: 399 RU
MAb A32 (antibody)			> 50 µg/mL	> 50 µg/mL	
MAb F425-B4e8 (antibody)			2.94 µg/mL	2.64 µg/mL	
MAb b6 (antibody)	391	233	> 50 µg/mL	> 50 µg/mL	
MAb b12 (antibody)	223	195	0.15 µg/mL	0.17 µg/mL	
T-20 (Enfuvirtide) (peptide)			24.2 nM	11.5 nM	IC50 of neutralization, fold against the mutant [3]: 2 fold
monoclonal antibody (MAb) PA-1	242	123	> 50 µg/mL	> 50 µg/mL	
